Experimental data as given in US6033847, “InK4c-p18 and InK4d-p19, inhibitors of cyclin-dependent kinases CDK4 and CDK6, and uses thereof” (St. Jude Children's Research Hospital, dated 2000).
One block for each binder: values may come before it.

How the values were obtained:
[1] = target: mouse CDK2 (mouse, UniProt P97377-2); assay: GST pull-down of 35S-labelled in vitro translated CDKs
Experimental: (§1) Equal aliquots of the "input" samples shown in lanes 1–6 were incubated with control beads (lanes 7–12) (i.e., GST-Sepharose; GST=glutathione S-transferase) or with beads containing a GST-p19 fusion protein (lanes 13–18), after which the beads were washed, and adsorbed radiolabeled products were separated on gels and autoradiographed. In Panel B, the experiments were performed as in panel A, except that radiolabeled cyclins D2 and D3 were substituted for cdk gene products; the cdk4 gene product was used as a positive control. All autoradiographic exposure times were 15 hrs.
(§2) Human InK4 polypeptides specifically bind to the cyclin D-dependent catalytic subunits, CDK4 and CDK6 (5,18,45). To study the interactions of mouse p19 and p18 with CDKs, cDNAs encoding CDC2 (CDK1) and CDKs 2–6 were transcribed and translated in vitro, and the radiolabeled products were mixed with GST-tagged p19 and p18 fusion proteins adsorbed to glutathione-Sepharose beads or to GST-Sepharose beads as a control.
(§3) Plasmids derived from pBluescript and containing the entire coding sequences of the mouse cdk2, cdk4, cdk5, or cdk6 genes (Matsuoka et al., Mol. Cell. Biol. 14:7265–7275 (1994); Matsushime et al., Cell 71:323–334 (1992)) or human cdc2/cdk1 or cdk3 genes (provided by Drs. Matthew Meyer-son and Edward Harlow (MGH Cancer Center, Cambridge, Mass.)) were transcribed and translated in vitro (Matsuoka et al., Mol. Cell. Biol. 14:7265–7275 (1994)). Mouse cdk6 cDNA was cloned from a mouse macrophage library (Stratagene, La Jolla, Calif.) by screening with a full-length human cdk6 clone (also provided by M. Meyerson and E. Harlow). Following transcription and translation, rabbit reticulocyte lysates containing ^35S-methionine labeled CDKs (20–40 ul) were diluted to 0.5 ml in IP kinase buffer (50 mM Hepes, pH 7.5, containing 150 mM NaCl, 1 mM EDTA, 1 mM DTT, 0.1% Tween-20) containing 10 mg/ml BSA and mixed with 1 ug of purified GST or GST-p19 immobilized on glutathione-Sepharose beads. After 2 hours of incubation at 4° C., beads were collected by centrifugation, washed 4 times in IP kinase buffer, and the bound proteins were denatured and analyzed by electrophoresis on 12.5% polyacrylamide gels containing SDS (Anderson, S. J., et al., J. Virol. 51:730–741 (1984)).

[2] = target: human CDC2 (CDK1) (human, UniProt P06493); assay: as above
Experimental: as §1, §2, §3

[3] = target: mouse CDK5 (mouse, UniProt P49615); assay: as above
Experimental: as §1, §2, §3

[4] = target: T1, cyclin D3 (Mus musculus (Mouse), UniProt P30282); assay: GST pull-down of radiolabelled cyclins D2 and D3
T1 sequence: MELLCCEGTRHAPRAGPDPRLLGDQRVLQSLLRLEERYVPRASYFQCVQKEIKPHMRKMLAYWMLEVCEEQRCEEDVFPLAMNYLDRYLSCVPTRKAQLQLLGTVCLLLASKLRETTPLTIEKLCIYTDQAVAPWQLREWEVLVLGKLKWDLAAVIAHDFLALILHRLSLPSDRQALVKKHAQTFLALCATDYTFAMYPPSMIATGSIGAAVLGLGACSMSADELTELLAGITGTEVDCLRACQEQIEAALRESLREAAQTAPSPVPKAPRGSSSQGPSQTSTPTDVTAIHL
Experimental: as §1, with “Panel A is an autoradiograph of aliquots of the ^35S-methionine-labeled products, derived from the in vitro transcription and translation of plasmids containing CDNA coding sequences of the cdc or cdk gene indicated in the legend below lanes 1–6, separated by electrophoresis on denaturing polyacrylamide gels. Equal” for “Equal”
as §3

[5] = target: cyclin D2 (Mus musculus (Mouse), UniProt P30280); assay: GST pull-down of radiolabelled cyclins D2 and D3
Experimental: as §1, with “Panel A is an autoradiograph of aliquots of the ^35S-methionine-labeled products, derived from the in vitro transcription and translation of plasmids containing CDNA coding sequences of the cdc or cdk gene indicated in the legend below lanes 1–6, separated by electrophoresis on denaturing polyacrylamide gels. Equal” for “Equal”
as §3

[6] = target: cyclin D1 (endogenous, murine BAC1.2F5 macrophages) (mouse, UniProt P25322); assay: co-immunoprecipitation from lysates of proliferating mouse cells with antiserum to the p19 C-terminus

- binding result [1]: no binding (tested: 1 ug on beads)
- binding result [2]: no binding (tested: 1 ug on beads)
- binding result [3]: no binding (tested: 1 ug on beads)
- binding result [4]: no binding
- binding result [5]: no binding
B1: GST-p19 fusion protein (glutathione S-transferase fused to mouse InK4d-p19) (other)
chain: MLLEEVCVGDRLSGARARGDVQEVRRLLHRELVHPDALNRFGKTALQVMMFGSPAVALELLKQGASPNVQDASGTSPVHDAARTGFLDTLKVLVEHGADVNALDSTGSLPIHLAIREGHSSVVSFLAPESDLHHRDASGLTPLELARQRGAQNLMDILQGHMMIPM

- binding result [6]: no binding
B2: mouse InK4d-p19 (other)
chain: B1 chain

- binding result [1]: no binding
- binding result [2]: no binding
- binding result [3]: no binding
- binding result [4]: no binding
- binding result [5]: no binding
B3: GST-p18 fusion protein (glutathione S-transferase fused to mouse InK4c-p18) (other)
chain: MAEPWGNELASAAARGDLEQLTSLLQNNVNVNAQNGFGRTALQVMKLGNPEIARRLLLRGANPNLKDGTGFAVIHDAARAGFLDTVQALLEFQADVNIEDNEGNLPLHLAAKEGHLPVVEFLMKHTACNVGHRNHKGDTAFDLARFYGRNEVISLMEANGVGGATSLQ
